The source of these data is patent US20110045489A1, “Polymerases for Incorporating Modified Nucleotides” (NEW ENGLAND BIOLABS, INC., priority 2008, published 2011).

Common to all, as to type: biochemical
For one assay, the system named is modified nucleotide. Description: Screen of DNA polymerase mutants for modified nucleotide incorporation. The gist of the method:
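Chain-terminator titration (Gardner and Jack 2002) compared terminator amounts giving equal product-size spectra, product size shrinking as terminator incorporation rises. Applied to purified 9° N exo- polymerase library mutants with 3′-azido-ddCTP and 3′-amino-ddCTP; incorporation rates also measured.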

The next assay concerns 3′-O-azidomethyl-dCTP. Description: Titration assay, incorporation of 3′-O-azidomethyl-dCTP. The procedure: Reactions were also performed in the absence of terminators to ensure that synthesis by each DNA polymerase was sufficient to extend primers without premature termination (“dNTP” lanes). Reactions with Therminator™ (NEB, Inc., Ipswich, Mass.) and 9° N exo-L408P/Y409A/S411T DNA polymerase (SEQ ID NO:6) were incubated at 72° C. for 30 minutes. Reactions with E. coli Polymerase I (pol I) (NEB, Inc., Ipswich, Mass.), Sequenase™, (USB, Inc., Cleveland, Ohio), Mma exo- and Mma exo-L417P/Y418A/S420T were incubated at 37° C. for 30 minutes. Each band corresponds to a DNA fragment terminated by a 3′-azido-dCMP. Using a titration assay as described in Gardner and Jack (2002), the relative 3′-azido-dCTP incorporation efficiency was determined for a series of DNA polymerases.
Incorporation of 3′-O-azidomethyl-dCTP by various DNA polymerases was measured using the titration assay as described in Example 1. For each reaction, a ratio of either 10:1 or 1:1 3′-O-azidomethyl-dCTP:dNTP was used to generate a termination pattern. Each band corresponded to a DNA fragment terminated by a 3′-azido-dCMP. A control reaction lacking terminator (dNTP) which yielded large extension products gave assurance that the DNA polymerase was active, and that termination products resulted from terminator incorporation rather than incomplete polymerization. Reactions with Therminator™ (NEB, Inc., Ipswich, Mass.) and 9° N exo-L408P/Y409A/S411T DNA polymerase were incubated at 72° C. for 30 minutes. Reactions with E. coli Polymerase I (pol I) (NEB, Inc., Ipswich, Mass.), Sequenase™ (USB, Inc., Cleveland, Ohio), Mma exo- and Mma exo-L417P/Y418A/S420T were conducted at 37° C. for 30 mintues. Therminator™ (NEB, Inc., Ipswich, Mass.) DNA polymerase was assayed with a 1:1 ratio of acyCTP as control.

Another assay concerns 3′-azido-ddCTP. Kind of assay: Titration assay for chain terminator incorporation efficiency (3′-azido-ddCTP). As to conditions: 3′-azido-ddCTP:dNTP 10:1, 2.5:1, 1:2.5; FIG. 1. The procedure:
FIG. 1A-1D show titration assays for chain terminator incorporation efficiency. The relative efficiency of incorporation of modified nucleotide terminators was assessed using the titration assay described in Gardner and Jack Nucleic Acids Research 30: 605-613 (2002). A dye-labeled oligonucleotide primer 5′-AGTGAATTCGAGCTCGGTACCCGGGGATCCTCTAGAGTCGACCTGCAGGC-3′ was annealed to a single-stranded M13mp18 DNA template (Accession No. X02513) and extended by a DNA polymerase in the presence of various ratios of 3′-azido-ddCTP:dNTP (10:1, 2.5:1, 1:2.5) or dNTP (“dN” in the figure) alone in 1×ThermoPol buffer (20 mM Tris-HCl, 10 mM (NH4)2SO4,10 mM KCl, 2 mM MgSO4, 0.1% Triton X-100, pH 8.8 @ 25° C.). […]
In order to determine the extent of 3′-modified nucleotide incorporation by archaeon DNA polymerases, the titration assay described by Gardner and Jack (2002) was used. […] By comparing the amount of terminator required to give the same spectrum of reaction products, the relative efficiency of incorporation of the test compounds with the different polymerases was determined. […]
Once the spectrum of termination products was determined, a comparison of the length, uniformity and clarity of these patterns was used to evaluate incorporation of the terminator. […]
The size distribution of termination products was determined by the relative rates of dNTP and terminator incorporation. […]

B1: Mma exo-L417P/Y418A/S420T: exonuclease minus mutant Mma DNA polymerase, SEQ ID NO:23 (protein, listed as Methanococcus maripaludis)
chain: MESLIDLDYNSDDLCIYLYLINSIIKEKDFKPYFYVNSTDKEQILEFLKDYEKKHKLDSEISKMIENIETVKKIVFDENYQEKELSKVTVKYPNNVKTVREILMEFERLYEYDIPFVRRYLIDNSVIPTSTWDFENNKKIDNKIPDFKTVSFAIAVYCNKEPNPKKDPIIMASFSSKDFNTVVSTKKFDHEKLEYVKDEKELIKRIIEILKEYDIIYTYNGDNFDFPYLKKRAESFGLELKLGKNDEKIKITKGGMNSKSYIPGRVHIDLYPIARRLLNLTKYRLENVTEALFDVKKVDVGHENIPKMWDNLDETLVEYSHQDAYYTQRIGEQFLPLEIMFSRVVNQSLYDINRMSSSQMVEYLLLKNSYKMGVIAPNRPSGKEYQKRIRSSYEGGYVKEPLKGIHEDIVSMDFLSPAPTIIMSHNLSPETIDCTCCSDEENGENEEILGHKFCKKSIGIIPKTLMDLINRRKKVKKVLREKAEKGEFDEEYQILDYEQRSIKVLANSHYGYLAFPMARWYSRDCAEITTHLGRQYIQKTIEEAENFGFKVIYADTDGFYSKWADDKEKLSKYELLEKTREFLKNINNTLPGEMELEFEGYFKRGIFVTKKKYALIDENEKITVKGLEVVRRDWSNVSKNTQKNVLNALLKEGSVENAKKVIQDTIKELKDGKVNNEDLLIHTQLTKRIEDYKTTAPHVEVAKKILKSGNRVNTGDVISYIITSGNKSISERAEILENAKNYDTNYYIENQILPPVIRLMEALGITKDELKDSKKQYTLHHFLK
modifications: (1)..(784) exo_ L417P/Y418A/S420T mutant
On to B1, for which the “increase of modified nucleotide incorporation” value in the assay on modified nucleotide is “at least two-fold”. Also, the “3′-O-azidomethyl-dCTP incorporation / termination of synthesis” value in the assay with 3′-O-azidomethyl-dCTP (10:1 or 1:1 3′-O-azidomethyl-dCTP:dNTP, 72° C. (9° N) or 37° C., 30 minutes) was “incorporated 3′-O-azidomethyl-dCTP efficiently”. In the assay on 3′-O-azidomethyl-dCTP (10:1 or 1:1 3′-O-azidomethyl-dCTP:dNTP, 72° C. or 37° C., 30 minutes, FIG. 8), the “relative 3′-O-azidomethyl-dCTP incorporation efficiency, rank order” value is “greater than Mma exo-”. Also, the “effect of the mutations on 3′-O-azidomethyl-dCTP incorporation” value with 3′-O-azidomethyl-dCTP (versus parent exo- polymerase) is “increased 3′-O-azidomethyl-dCTP incorporation”.

B2: 9° N exo-L408S/P410V: 9° N DNA polymerase mutant (protein, UniProt Q56366 1-775, looked up, variant D141A E143A L408S P410V)
DNA polymerase: MILDTDYITENGKPVIRVFKKENGEFKIEYDRTFEPYFYALLKDDSAIEDVKKVTAKRHGTVVKVKRAEKVQKKFLGRPIEVWKLYFNHPQDVPAIRDRIRAHPAVVDIYEYDIPFAKRYLIDKGLIPMEGDEELTMLAFAIATLYHEGEEFGTGPILMISYADGSEARVITWKKIDLPYVDVVSTEKEMIKRFLRVVREKDPDVLITYNGDNFDFAYLKKRCEELGIKFTLGRDGSEPKIQRMGDRFAVEVKGRIHFDLYPVIRRTINLPTYTLEAVYEAVFGKPKEKVYAEEIAQAWESGEGLERVARYSMEDAKVTYELGREFFPMEAQLSRLIGQSLWDVSRSSTGNLVEWFLLRKAYKRNELAPNKPDERELARRRGGYAGGYVKEPERGLWDNIVYLDFRSSYVSIIITHNVSPDTLNREGCKEYDVAPEVGHKFCKDFPGFIPSLLGDLLEERQKIKRKMKATVDPLEKKLLDYRQRAIKILANSFYGYYGYAKARWYCKECAESVTAWGREYIEMVIRELEEKFGFKVLYADTDGLHATIPGADAETVKKKAKEFLKYINPKLPGLLELEYEGFYVRGFFVTKKKYAVIDEEGKITTRGLEIVRRDWSEIAKETQARVLEAILKHGDVEEAVRIVKEVTEKLSKYEVPPEKLVIHEQITRDLRDYKATGPHVAVAKRLAARGVKIRPGTVISYIVLKGSGRIGDRAIPADEFDPTKHRYDAEYYIENQVLPAVERILKAFGYRKEDLRYQKTKQVGLGAWLKVKGKK
In the case of B2, in the assay on modified nucleotide, the “increase of modified nucleotide incorporation” value is “at least two-fold”. Also, the “3′-azido-ddCTP incorporation efficiency relative to wild-type 9° N exo-DNA polymerase” value in the assay with 3′-azido-ddCTP is reported as “at least 2 fold”.
